Measurements reported in patent US20220135687A1 (NANJING LEGEND BIOTECH, published 2022).
Where a chain is given by its changes, count along the chain named. Numbers in names are those of the source.

B1: 1H1G4D9 (antibody, V domains shown)
VH: EGQLQQSGAELVKPGASVILSCTASGFNIKDTYIHWLNQRPEQGLEWIGRIEPANGNTKYDPTFQGKATITADTSSNTAYLQLTSLTSEDTAVYYCSRGGIYYYGSHWYFDVWGAGTLVTVSS
VL: DVLMTQTPLSLPVSLGDQASISCRSSQNIVYSDGDTYLEWYLQKPGQSPKLLIFKVSNRFSGVPDRFSGSGSGTDFTLKISRVEAEDLGVYYCFQGSHVPFTFGSGTKLEIK
notes: Mouse mAb from hybridoma culture
B2: 21D1F4D4 (antibody, V domains shown)
VH: QVQLQQPGAEVVRPGASVKLSCKASGYTFTNYWISWVKQRPGQGLEWIGNIYPSDSYTNYNQNFKDKATLTVDKSSSTAYMQLSSPTSEDSAVYYCTTGIITVIATRDDYWGQGTTLTVSS
VL: QIVLTQSPAIMSASPGEKVTLTCSASSSVSSSYLYWYQQKPGSSPKLWIYSTSNLASGVPARFSGSGSGTSYSLTVSSMEAEDAASYFCHQWSSYPFTFGSGTKLEIK
notes: as for B1
B3: 25G1F9F8 (antibody, V domains shown)
VH: EGQLQQSGAELVKPGASVNLSCTASGFNIKDTYIHWVKQRPDQGLEWIGRIAPTNGNAKFHPTFQGKATITADTSSNTAYLQLSSLTSEDTAVYYCTRGGIYYYGTHWYFDVWGAGTTVTVSS
VL: B1 VL with T5N, D35N, K55Q, V90F
notes: as for B1
B4: 30A6B2D9 (antibody, V domains shown)
VH: B1 VH with E10G, I19N, L37M, N38K, E52A, A54T, T74S, L83V, T84S, L118T
VL: B1 VL with D1S, S61F, S81N
notes: as for B1
B5: 30A7B5D9 (antibody, V domains shown)
VH: KVQLQQSGAELVKPGTSVKLSCKASGYTFTEYIIYWIKQRSGQGLEWIGWFYPGTGSIKYNEKFKDKATLTADKSSSTVFMELSRLTSEDSAVYFCARHEEGNLWFAYWGQGTLVTVSA
VL: QIVLTQSPALMSASPGERVTMTCSASSDVSYMYWYQQKPRSSPKPWIYLTSNLASGVPARFSGSGSGTSYSLTISSMEAEDAATYYCQQWTGNPLTFGAGTKLELK
notes: as for B1
B6: 42G2D7C3 (antibody, V domains shown)
VH: DVQLLESGPGLVKPSQSLSLTCSVTGYSITSGYYWNWIRQFPGNNLEWMGSINYDGSNDYNPSLQDRISITRDTSKNQFFLKLNSVTTEDTATYYCARRLDYWGQGTTLIVSS
VL: QIVLTQSPAIMSASPGEKVTISCSASSFINYMYWYQQKPGSSPKPWILRTSTLASGVPARFSGSGSGTSYSLTISSMEAEDAATYYCQQYHSYPLTFGAGTKLELK
notes: as for B1
B7: 53C1_VH2-VL1.M1 (antibody, human IgG1, kappa, N297A, V domains shown)
VH: EVQLVQSGAEVKKPGASVKVSCKASGYIFTGYGITWVRQAPGQGLEWIGEIFPRRVNTYYSEKFKGRATLTTDTSTSTAYMELRSLRSDDTAVYFCARDYDPYFALDYWGQGTTVTVSS
VL: DIQMTQSPSSLSASVGDRVTITCRASQDVSTAVDWYQQKPGKAPKLLIYSASYRYTGVPDRFSGSGSGTDFTFTISSLQPEDIATYYCQQHYSIPFTFGQGTKLEIKR
notes: Humanized, hIgG1 effector-less Fc, kappa; see recheck on K24R in the .M1 light chain
B8: 53C1_VH3.M3-VL1.M1 (antibody, human IgG1, kappa, N297A, V domains shown)
VH: B7 VH with V20L, N57Q, T72A
VL: B7 VL
notes: Humanized, VH N57Q in the entry; hIgG1 effector-less Fc, kappa; see recheck on K24R in the .M1 light chain
B9: 29A8_VH2-VL1.M1 (antibody, human IgG1, kappa, N297A, V domains shown)
VH: EVQLQESGPGLVKPSETLSLTCTVSGYSITSDFAWDWIRQFPGKGLEWMGHIRFSGTTSYNPSLKSRITISVDTSKNQFSLKLSSVTAADTAVYYCARSTLITKGFFDYWGQGTLVTVSS
VL: DIQMTQSPSSLSASVGDRVTITCRASQDVSPAVAWYQQKPGKAPKLLIYWASTRHTGVPSRFSGSGSGTDFTLTISSLQPEDFATYYCQQHYSTPWTFGQGTKVEIKR
notes: as for B7
B10: 29A8_VH3-VL1.M1 (antibody, human IgG1, kappa, N297A, V domains shown)
VH: B9 VH with S80F, V93T, V116L
VL: B9 VL
notes: as for B7
B11: 53C1_VH-VL.M1 (antibody, human IgG1, kappa, N297A, V domains shown)
VH: QVQLQQSGNELARPGASVRLSCKASGYIFTGYGITWVRQRPGQGLEWIGEIFPRRVNTYYSEKFKGRATLTADISSSTAYMELRSLTSEDSAVYFCARDYDPYFALDYWGQGTSVTVSS
VL: DIVMTQSHKFMSTSVGDRVSITCRASQDVSTAVDWYQQKPGQSPKLLIYSASYRYTGVPDRFTGSGSGTAFTFTISGEQAEDLAVYYCQQHYSIPFTFGGGTKLEIKR
notes: Chimeric mutant, VL K24R in the entry; human IgG1 effector-less Fc, kappa
B12: 53C1_VH.M1-VL (antibody, human IgG1, kappa, N297A, V domains shown)
VH: B11 VH with N57S
VL: B11 VL with R24K
notes: Chimeric mutant, VH N57S in the entry; human IgG1 effector-less Fc, kappa
B13: 53C1_VH.M1-VL.M1 (antibody, human IgG1, kappa, N297A, V domains shown)
VH: B11 VH with N57S
VL: B11 VL
notes: Chimeric mutant (VH N57S, VL K24R in the entries); human IgG1 effector-less Fc, kappa
B14: 53C1_VH.M2-VL (antibody, human IgG1, kappa, N297A, V domains shown)
VH: B11 VH with N57A
VL: B11 VL with R24K
notes: Chimeric mutant, VH N57A in the entry; human IgG1 effector-less Fc, kappa
B15: 53C1_VH.M2-VL.M1 (antibody, human IgG1, kappa, N297A, V domains shown)
VH: B11 VH with N57A
VL: B11 VL
notes: Chimeric mutant (VH N57A, VL K24R in the entries); human IgG1 effector-less Fc, kappa
B16: 53C1_VH.M3-VL (antibody, human IgG1, kappa, N297A, V domains shown)
VH: B11 VH with N57Q
VL: B11 VL with R24K
notes: Chimeric mutant, VH N57Q in the entry; human IgG1 effector-less Fc, kappa
B17: 53C1_VH.M3-VL.M1 (antibody, human IgG1, kappa, N297A, V domains shown)
VH: B11 VH with N57Q
VL: B11 VL
notes: Chimeric mutant (VH N57Q, VL K24R in the entries); human IgG1 effector-less Fc, kappa
B18: 29A8_VH-VL.M1 (antibody, human IgG1, kappa, N297A, V domains shown)
VH: DVQLQGSGPGLVKPSQSLSLTCTVTGYSITSDFAWDWIRQFPGNKLEWMGHIRFSGTTSYNPSLKSRISITRDTSKNQFFLQLNSVTSEDTATYYCARSTLITKGFFDYWGQGTTLTVSS
VL: DIVMTQSHKFMSTSVGGRVSITCRASQDVSPAVAWYQQKPGQSPKLLIYWASTRHTGVPDRFTGSGSGTDFTLTISSVQTEDLALYYCQQHYSTPWTFGGGTKLEIKR
notes: human IgG1 effector-less Fc, kappa
B19: 25B6E5D8 (antibody, V domains shown)
VH: QFQLQQSGAELVRPGSSVKISCKASGYEFSSNWMNWVKQRPGQSLEWIGQIWPGDGDTNYNGKFRGKATLTSDKSSSTAYMQLNSLTSEDSAVYFCARGRASFYFDYWGQGTALTVSS
VL: DIVLTQSPASLAVSLGQRATISCRASESVDDYGNSFMHWYQQKPGQPPKLLIYRASNLESGIPVRFSGSGSRTDFTLTINPVEADDVATYYCQQSNEDPHTFGGGTKLEIK
notes: as for B1

target: T1, human PD-L1 expressed on CHO-K1 cells (Genscript, Cat #M00543) (human, UniProt Q9NZQ7 19-290); assay: FACS competition vs biotin-PD-1-Fc on CHO-K1/human PD-L1 cells
T1 construct: also called PD-L1 cell line
T1 sequence (Q9NZQ7 19-290, one chain of several): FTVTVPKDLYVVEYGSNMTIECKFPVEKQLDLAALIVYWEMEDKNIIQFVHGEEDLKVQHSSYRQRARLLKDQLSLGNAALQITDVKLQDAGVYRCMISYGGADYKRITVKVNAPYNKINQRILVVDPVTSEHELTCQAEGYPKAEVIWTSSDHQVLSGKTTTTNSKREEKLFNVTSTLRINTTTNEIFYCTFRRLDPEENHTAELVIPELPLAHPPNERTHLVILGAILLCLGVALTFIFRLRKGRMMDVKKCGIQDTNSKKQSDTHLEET
Description: A series of diluted mouse mAbs (concentration starting from 900 nM, 3 fold dilution, 50 μl per well) were added afterwards. The mixture was incubated at 4° C. for 30 minutes, washed twice with wash buffer, followed by the addition of PEcy5/streptavidin (1 μg/ml, 150 μl/well). The plates were again incubated at 4° C. for 30 minutes before the cells in each well were analyzed by FACSCalibur (BD Bioscience, San Jose, Calif.) and Flowjo software.

B1 was tested. Which IC50 did it give?
Its IC50 is 11.8 nM.

Which IC50 does the source give for B2 here?
Its IC50 is 3.79 nM.

B3 was tested. Which IC50 did it give?
The IC50 was 13.8 nM.

For B4, which IC50 is on record?
The IC50 was 8.35 nM.

B5 was tested. Which IC50 did it give?
The IC50 was 4.43 nM.

How did the IC50 turn out when B6 was run?
The IC50 was 2.89 nM.

target: T2, His-tagged PD-L1 ECD protein (ACROBiosystems) (human, UniProt Q9NZQ7 19-238); assay: SPR, supernatant IgG captured, PD-L1-His analyte
T2 construct: Bought protein; also called PD-L1-His; PD-L1/His; not shown: His tag
T2 sequence (Q9NZQ7 19-238): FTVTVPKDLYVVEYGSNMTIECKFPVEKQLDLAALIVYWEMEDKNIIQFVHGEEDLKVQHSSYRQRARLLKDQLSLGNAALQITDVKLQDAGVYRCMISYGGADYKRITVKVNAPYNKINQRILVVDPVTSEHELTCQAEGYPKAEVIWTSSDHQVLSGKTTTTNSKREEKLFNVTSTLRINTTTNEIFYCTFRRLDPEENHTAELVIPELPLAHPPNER

Which Kd does the source give for B7 here?
The Kd was 1 nM.

What about the koff of the same binder?
The koff was 0.00025 s⁻¹.

What about the kon of the same binder?
The kon was 240000 M⁻¹ s⁻¹.

Which results are given for B8?
Kd: 0.21 nM; koff: 7.3e-05 s⁻¹; kon: 350000 M⁻¹ s⁻¹

target: T2, His-tagged PD-L1 ECD protein …; assay: SPR, supernatant IgG captured, PD-L1-His analyte; remark: another data set of the same source

How did the Kd turn out when B9 was run?
The Kd was 1.3 nM.

What about the koff of the same binder?
The koff was 0.00061 s⁻¹.

And the kon?
The kon was 470000 M⁻¹ s⁻¹.

For B10, which Kd is on record?
Its Kd is 1.1 nM.

And the koff?
Its koff is 0.00051 s⁻¹.

And the kon?
Its kon is 480000 M⁻¹ s⁻¹.

target: T2, His-tagged PD-L1 ECD protein …; assay: SPR, supernatant IgG captured, PD-L1-His analyte; remark: another data set of the same source

For B11, which Kd is on record?
Its Kd is 0.76 nM.

What about the koff of the same binder?
The koff was 0.0002 s⁻¹.

What about the kon of the same binder?
Its kon is 260000 M⁻¹ s⁻¹.

What does the source list for B12?
Kd: 0.87 nM; koff: 0.00021 s⁻¹; kon: 240000 M⁻¹ s⁻¹

What does the source list for B13?
Kd: 0.86 nM; koff: 0.0002 s⁻¹; kon: 240000 M⁻¹ s⁻¹

What does the source list for B14?
Kd: 0.81 nM; koff: 0.00016 s⁻¹; kon: 200000 M⁻¹ s⁻¹

Which Kd does the source give for B15 here?
Its Kd is 0.94 nM.

And the koff?
The koff was 0.00018 s⁻¹.

And the kon?
Its kon is 200000 M⁻¹ s⁻¹.

How did the Kd turn out when B16 was run?
The Kd was 0.53 nM.

What about the koff of the same binder?
The koff was 0.00014 s⁻¹.

And the kon?
The kon was 260000 M⁻¹ s⁻¹.

With B17 as the binder, how does the Kd read?
The Kd was 0.56 nM.

What about the koff of the same binder?
The koff was 0.00014 s⁻¹.

And the kon?
The kon was 260000 M⁻¹ s⁻¹.

How did the Kd turn out when B18 was run?
The Kd was 0.29 nM.

And the koff?
Its koff is 0.00015 s⁻¹.

And the kon?
Its kon is 530000 M⁻¹ s⁻¹.

target: T1, human PD-L1 expressed on CHO-K1 cells …; assay: FACS, CHO-K1/human PD-L1 cells
Description: PD-L1 stable cell line binding activity assessment of 12 mouse mAbs was carried out using FACS. CHO-K1 cells expressing human PD-L1 (Genscript, Cat #M00543) were dissociated from adherent culture flasks and mixed with varying concentrations of antibodies. The antibody and cells were incubated for 30 minutes at room temperature, washed three times with FACS buffer (PBS containing 1% BSA). PE-labeled goat anti-mouse IgG (minimal x-reactivity) secondary antibody (BioLegend, Cat #405307) was added and incubated at room temperature for 15 minutes. Cells were washed again with FACS buffer and analyzed by FACSCalibur (BD Bioscience, San Jose, Calif.) and Flowjo software. Data were analyzed with Prism 6 (GraphPad Software, San Diego, Calif.) using non-linear regression, and EC₅₀ values were calculated (FIGS. 2A-2L and Table 3).

With B1 as the binder, how does the EC50 read?
Its EC50 is 12.3 nM.

And the “Top (best-fit value)” value?
Its value is 1760.

B2 was tested. Which EC50 did it give?
The EC50 was 9.37 nM.

And the “Top (best-fit value)” value?
Its value is 1960.

With B19 as the binder, how does the EC50 read?
The EC50 was 4.5 nM.

And the “Top (best-fit value)” value?
The value was 1410.

For B3, which EC50 is on record?
Its EC50 is 18.1 nM.

And the “Top (best-fit value)” value?
The value was 1750.

Which results are given for B4?
EC50: 11.1 nM; Top (best-fit value): 1640

Which results are given for B5?
EC50: 6.12 nM; Top (best-fit value): 1720

B6 was tested. Which EC50 did it give?
Its EC50 is 3.29 nM.

What about the “Top (best-fit value)” value of the same binder?
The value was 1780.
